# Results from patent publication US20040171074A1, “Structures of substrate binding pockets of SCF complexes” (MOUNT SINAI HOSPITAL, priority 2002, published 2004).
# T1: phospho-Sic1 isoforms (Saccharomyces cerevisiae, UniProt P38634)
# T1 construct: His6 (N); made in house; host or cells: bacteria (Sic1, Cdc4-GST-Skp1); insect cells (Cdc53-Rbx1)
# T1 sequence (P38634 1-284): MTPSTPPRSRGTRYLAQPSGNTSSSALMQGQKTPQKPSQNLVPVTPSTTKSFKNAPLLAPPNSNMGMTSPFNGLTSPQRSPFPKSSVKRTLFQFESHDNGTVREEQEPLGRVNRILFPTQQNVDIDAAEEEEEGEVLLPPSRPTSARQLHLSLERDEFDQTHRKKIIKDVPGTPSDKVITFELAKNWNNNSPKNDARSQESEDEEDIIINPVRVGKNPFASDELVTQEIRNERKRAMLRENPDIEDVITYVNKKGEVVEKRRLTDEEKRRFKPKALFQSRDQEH
# B1: WT: wild type yeast Cdc4 F-box protein (protein, UniProt P07834 1-779, looked up)
# Cell division control protein …: MGSFPLAEFPLRDIPVPYSYRVSGGIASSGSVTALVTAAGTHRNSSTAKTVETEDGEEDIDEYQRKRAAGSGESTPERSDFKRVKHDNHKTLHPVNLQNTGAASVDNDGLHNLTDISNDAEKLLMSVDDGSAAPSTLSVNMGVASHNVAAPTTVNAATITGSDVSNNVNSATINNPMEEGALPLSPTASSPGTTTPLAKTTKTINNNNNIADLIESKDSIISPEYLSDEIFSAINNNLPHAYFKNLLFRLVANMDRSELSDLGTLIKDNLKRDLITSLPFEISLKIFNYLQFEDIINSLGVSQNWNKIIRKSTSLWKKLLISENFVSPKGFNSLNLKLSQKYPKLSQQDRLRLSFLENIFILKNWYNPKFVPQRTTLRGHMTSVITCLQFEDNYVITGADDKMIRVYDSINKKFLLQLSGHDGGVWALKYAHGGILVSGSTDRTVRVWDIKKGCCTHVFKGHNSTVRCLDIVEYKNIKYIVTGSRDNTLHVWKLPKESSVPDHGEEHDYPLVFHTPEENPYFVGVLRGHMASVRTVSGHGNIVVSGSYDNTLIVWDVAQMKCLYILSGHTDRIYSTIYDHERKRCISASMDTTIRIWDLENIWNNGECSYATNSASPCAKILGAMYTLQGHTALVGLLRLSDKFLVSAAADGSIRGWDANDYSRKFSYHHTNLSAITTFYVSDNILVSGSENQFNIYNLRSGKLVHANILKDADQIWSVNFKGKTLVAAVEKDGQSFLEILDFSKASKINYVSNPVNSSSSSLESISTSLGLTRTTIIP
# Experiments:
# [1] = test system: cdc4Δ strain overexpressing SIC1; experiment: sensitivity to SIC1 dosage: GAL1-SIC1 overexpression in strains bearing CDC4 alleles; assay type: cell-based, yeast; details: galactose, 2 days at 30° C.
# How it was run: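 SIC1 dosage sensitivity: cdc4Δ strains carrying CDC4 mutant alleles (after plasmid shuffle) transformed with GAL1-SIC1 or GAL1-SIC1^T33V (also T45A), plated on glucose versus galactose medium for 2 days at 30 °C. Growth on galactose scored as tolerance of SIC1 overexpression.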
# phospho-Sic1 isoforms [2] = experiment: IEF-2D gel analysis of Sic1 phospho-isoforms captured by wild type or mutant Cdc4-GST-Skp1; assay type: binding, yeast; details: pool of Sic1 phosphorylated on 1 to 9 sites; listed as Wild type Cdc4
# Method: Bacterially expressed His6-Sic1 was phosphorylated with Cln2-Cdc28 kinase purified from baculovirus infected Sf9 cells as described before (Nature paper). 1 ug of WT or mutant Cdc4-GST-Skp1, immoblized on GSH-Sepharose resin, was incubated with 0.5 ug phospho-Sic1 at 4 C for 1 h and washed 4 times. Captured complexes were resolved on SDS-PAGE and Sic1 visualized by anti-Sic1 Western blotting and ECL. For IEF-2D analysis, several Sic1 phosphorylation reactions were carried out for different time periods to obtain a spectrum of Sic1 that were phosphorylated at different numbers of its nine CDK sites. This pool of phospho-Sic1 (2.5 ug) was incubated with 5 μg of WT or mutant Cdc4-GST-Skp1 as described above. Different phosphorylation states of Sic1 were separated by denaturing isoelectric focusing (IEF)-2D gel electrophoresis and visualized by anti-Sic1 Western blotting and ECL. IEF was performed using pH 3-10NL Immobiline gel strips and IPGphore IEF system (Amersham pharmacia).
# Cdc4 functional assays. CDC4 mutant alleles were assessed for complementation of a cdc4A strain in a plasmid shuffle assay (Nash et al., 2001). Sensitivity to SIC1 dosage was determined by transformation with pMT837 (GAL1-SIC1) or pMT767 (GAL1-SIC1^T33V) and plating on glucose medium or galactose medium. […]
# cdc4Δ strain = experiment: plasmid shuffle assay: complementation of a cdc4Δ strain by CDC4 alleles; assay type: cell-based, yeast; details: viability of cdc4Δ strain on 5-FOA, 2 days at 30° C.
# How it was run: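 Mutant CDC4 alleles on TRP1 CEN plasmids were shuffled into cdc4Δ strain MT 1259 carrying wild-type CDC4 on a URA3 plasmid, with growth on 5-FOA for 2 days at 30° C. Survivors were transformed with GAL1-SIC1 or phosphosite mutants and plated on glucose or galactose, 2 days at 30° C.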
# phospho-Sic1 isoforms [3] = biological target: T1, phospho-Sic1 isoforms; experiment: in vitro ubiquitination of phospho-Sic1 isoforms by wild type or mutant SCFCdc4 complex; assay type: biochemical, yeast; details: Cdc34, ubiquitin, ATP, 1 h at 30° C.
# phospho-Sic1 = experiment: P-Sic1 pull down: in vitro capture of phospho-Sic1 on immobilized wild type or mutant Cdc4-GST-Skp1, anti-Sic1 immunoblot; assay type: binding, yeast; details: Sic1 phosphorylated with Cln2-Cdc28, captured onto GST-Skp1/Cdc4 resin, anti-Sic1 detection
# How it was run: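 Bacterial His6-Sic1 phosphorylated by Cln2-Cdc28 from Sf9 cells; 0.5 μg phospho-Sic1 incubated with 1 μg immobilized wild-type or mutant Cdc4(263-744)-GST-Skp1 at 4° C for 1 h, washed four times. Bound Sic1 detected by anti-Sic1 immunoblot after SDS-PAGE.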
molecule,measurement,setting,value
B1,gal Sic1T33V,[1]; GAL1-SIC1 T33V (partially stabilized Sic1),alive
same,gal Sic1T45A,[1]; GAL1-SIC1 T45A,dead
same,gal Sic1 wt,[1]; GAL1-SIC1 wild type,alive
same,Sic1 phospho-isoforms captured (number of phosphorylated sites),phospho-Sic1 isoforms [2],six or more sites
same,shuffle,cdc4Δ strain,alive
same,conversion of Sic1 phosphorylated on four or five sites to oligo-ubiquitinated species,phospho-Sic1 isoforms [3],unable
same,P-Sic1 pull down,phospho-Sic1,bind
